Source: the supplement of paper PMC9170038

Tested on: MS2 coat protein
Assay: apparent KD of MS2 coat protein; designed switch direction (-1 OFF switch, 1 ON switch): -1; higher = weaker reporter binding
Method in brief: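 SNAP-549-labelled MS2 coat protein was titrated, doubling from 0.7 or 1.5 nM to 3 µM, over designed RNA switches transcribed on Illumina chips by stalled E. coli RNA polymerase. Runs were done without input, with 200 uM small-molecule ligand, or with an oligonucleotide input. Apparent KD is the per-design median over clusters of curve-fitted normalised fluorescence.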

[1] = Eterna round: R95, input ligand: microRNA oligo, concentration not stated
[2] = Eterna round: R95, input ligand: FMN 200 uM
[3] = Eterna round: R95, input ligand: none
[4] = input ligand: microRNA oligo, concentration not stated

Sequence: CAUCCACAUGAGGAUCACCCAUGUCAGGAUAUCUAUCAUAGCAUCGAAAGAUGCGGGUAGAGAAGGGACAAACC [ChP Ext 10-04-2015 #9] (puzzle: Exclusion 1)
- apparent KD of MS2 coat protein [1]: 12.4 nM

Sequence: CAUCCAGCUUCCCUUCAAAACAUGAGGAUCACCCAUGUUUUUGUUUUUACAAGCUUUUUGCUUUUUGCUCGUCUUGU [A Humble Attempt... Again] (puzzle: Sensor v3, turn-off variant 1)
- apparent KD of MS2 coat protein [2]: 20.5 nM
- apparent KD of MS2 coat protein [1]: 16 nM
- apparent KD of MS2 coat protein [3]: 21.5 nM

Sequence: CAUGAUUGACGAGGAUAUUGUACUACAUCACGACGAGAAGGCGUCUGUCACAUGAGGAUCACCCAUGUGAGACUGGUGAAUGAG [Ex NG1 #80] (Eterna round: R96, puzzle: Exclusion NG 1)
- apparent KD of MS2 coat protein (input ligand: FMN 200 uM): 31.6 nM
- apparent KD of MS2 coat protein [4]: 16.7 nM
- apparent KD of MS2 coat protein (input ligand: none): 26.2 nM

Sequence: CAUGAUUGACGAGGAUAUUGUUCUACAUGGCGACGAGAAGGCGUCUGUCACAUGAGGAUCACCCAUGUGAGUCUGGUGAAUGAG [Ex NG1 #83] (Eterna round: R96, puzzle: Exclusion NG 1)
- apparent KD of MS2 coat protein [4]: 25.7 nM

Sequence: CAUGAUUGGGAAGGAUAUUGACCUAGUUAGCGCCGAGAAGGUCCCUGUCACAUGAGGAUCACCCAUGUGAAUCUGGUGAAAGAG [Ex NG1 #93] (Eterna round: R96, puzzle: Exclusion NG 1)
- apparent KD of MS2 coat protein (input ligand: FMN 200 uM): 26.1 nM
- apparent KD of MS2 coat protein [4]: 16.6 nM
- apparent KD of MS2 coat protein (input ligand: none): 22.9 nM

Sequence: CAUGGAACGUAGGAUAUCUCGCGGCUAGGCUGCAGAGAAGGACGCACAUGAGGAUCACCCAUGUGUGAUCCAAA [Tibiataus] (puzzle: Exclusion 6)
- apparent KD of MS2 coat protein [2]: 27.6 nM
- apparent KD of MS2 coat protein [1]: 17 nM
- apparent KD of MS2 coat protein [3]: 21.9 nM

Sequence: CAUGUAAGUCGUUGAUCCAACAUGAGGAUCACCCAUGUCACUUUAGCUUUUUGCUCGUCUUAUCCUCCUUUGUUCAC [JR_STOV1_v2_Sub0100] (Eterna round: R97, puzzle: Sensor, turn-off variant 1)
- apparent KD of MS2 coat protein (input ligand: FMN 200 uM): 482 nM
- apparent KD of MS2 coat protein (input ligand: none): 1060 nM

Sequence: CAUGUCUGAGGAUAUCGUUUUUUGUACAUGAGGAUCACCCAUGUCCUAUUUUUUAUAUUACGAGAAGGCAGUGGAU [JR_E5_Sub091] (Eterna round: R96, puzzle: Exclusion 5)
- apparent KD of MS2 coat protein (input ligand: FMN 200 uM): 27.9 nM
- apparent KD of MS2 coat protein [4]: 27.8 nM
- apparent KD of MS2 coat protein (input ligand: none): 39.2 nM

Sequence: CAUGUCUGAGGAUAUCGUUUUUUGUACAUGAGGAUCACCCAUGUCCUAUUUUUUAUAUUACGAGAAGGCAGUGGAU [JR_E5_Sub091] (puzzle: Exclusion 5)
- apparent KD of MS2 coat protein [1]: 34.9 nM

Sequence: CCAACCAGAGGAUAUGCGCAUAGAUCAGACUUUGUUUCUGAACAUGAGGAUCACCCAUGUAGAAGGCUGUAACC [Ex2 #86] (Eterna round: R97, puzzle: Exclusion 2)
- apparent KD of MS2 coat protein (input ligand: FMN 200 uM): 26 nM
- apparent KD of MS2 coat protein (input ligand: none): 27.3 nM

Sequence: CCAAGCUUUUUCAUUAACAACAUGAGGAUCACCCAUGUUUAAGCUAUUACUUUUGGGCUCUUUAGUGCUCGUCUUAU [JR_STOV1_Sub040] (Eterna round: R97, puzzle: Sensor, turn-off variant 1)
- apparent KD of MS2 coat protein (input ligand: FMN 200 uM): 14.4 nM
- apparent KD of MS2 coat protein (input ligand: none): 13.9 nM

Sequence: CCAAUGUAAGGAUAUGACAAUGGUAUCUUCGGAUACCAUUGUCAGAAGGUACAUGAGGAUCACCCAUGUAUAAA [Ex4-3: 10] (puzzle: Exclusion 4)
- apparent KD of MS2 coat protein [1]: 17.3 nM

Sequence: CCACGACAUGAGGAUCACCCAUGUGAGGAUAUGGCCAGUAUGGCGUGAGCUGAAUCAAUCAGAAGGCGCGUGGG [salish99_ex1_r4_056] (Eterna round: R97, puzzle: Exclusion 1)
- apparent KD of MS2 coat protein (input ligand: FMN 200 uM): 276 nM
- apparent KD of MS2 coat protein (input ligand: none): 339 nM

Sequence: CCACUGUCAGGAUAUCGUGCAUAACGUUUACAUUUUAUGUGCGAGAAGGGACAUGAGGAUCACCCAUGUAAACG [Omei Ex4 A28PK2] (Eterna round: R97, puzzle: Exclusion 4)
- apparent KD of MS2 coat protein (input ligand: FMN 200 uM): 206 nM
- apparent KD of MS2 coat protein (input ligand: none): 808 nM

Sequence: CCAGCGAGUGUGAGGAUAUGCUGGUCCUUGGAUCAGCAGAAGGCACAUGAGGAUCACCCAUGUGAGGACGUUGG [JL bmx4 3.31] (Eterna round: R96, puzzle: Brourd's mod of Exclusion 4)
- apparent KD of MS2 coat protein (input ligand: FMN 200 uM): 294 nM
- apparent KD of MS2 coat protein [4]: 27.9 nM
- apparent KD of MS2 coat protein (input ligand: none): 31.9 nM

Sequence: CCAGCGAGUGUGAGGAUAUGCUGGUCCUUGGAUCAGCAGAAGGCACAUGAGGAUCACCCAUGUGAGGACGUUGG [JL bmx4 3.31] (puzzle: Brourd's mod of Exclusion 4)
- apparent KD of MS2 coat protein [1]: 23.9 nM

Sequence: CCAGCGUAUGUUAGGAUAUGCUGGUCGAAAGAUCAGCAGAAGGAACAUGAGGAUCACCCAUGUGGAAAAGUUGG [Mod of JL 25 - Jieux - Brourd's mod of Exclusion 4] (Eterna round: R97, puzzle: Brourd's mod of Exclusion 4)
- apparent KD of MS2 coat protein (input ligand: FMN 200 uM): 184 nM
- apparent KD of MS2 coat protein (input ligand: none): 30.4 nM

Sequence: CCAGGCGUCUUUGCUCGUCUUAUUUGGAGAUGACUGUUAACAUGAGGAUCACCCAUGUGUGUGGGAGCGUUGCAGUC [JR_SV3TOV2_Sub021] (puzzle: Sensor v3, turn-off variant 2)
- apparent KD of MS2 coat protein [2]: 580 nM
- apparent KD of MS2 coat protein [1]: 431 nM
- apparent KD of MS2 coat protein [3]: 885 nM

Sequence: CCAUAGUCAGGAUAUACAUGAGGAUCACCCAUGUAAAAUUUUAAUUUAAUUUGAAGGUGUAGAAGGGACCAACC [Ex3 #30] (Eterna round: R97, puzzle: Exclusion 3)
- apparent KD of MS2 coat protein (input ligand: FMN 200 uM): 26.3 nM
- apparent KD of MS2 coat protein (input ligand: none): 33.2 nM

Sequence: CCAUAUUCGAAGGAUAUGCAAUUGGAUAGAUUCGCAGAAGGUCGAACAUGAGGAUCACCCAUGUCCCUGGUGAA [Eternabot (L2) Solution 89] (Eterna round: R97, puzzle: Exclusion 6)
- apparent KD of MS2 coat protein (input ligand: FMN 200 uM): 903 nM
- apparent KD of MS2 coat protein (input ligand: none): 133 nM

Sequence: CCAUGUUAGCAGGAUAUGCAAUAAAUCUUUUAUGCAGAAGGGCUUACAUGAGGAUCACCCAUGUAUUAAGUCAA [JR_E6_Sub078] (puzzle: Exclusion 6)
- apparent KD of MS2 coat protein [2]: 118 nM
- apparent KD of MS2 coat protein [1]: 36 nM
- apparent KD of MS2 coat protein [3]: 49.9 nM

Sequence: CCCACGUCAGGAUAUCUAAAGGUCCGAAAUAACGGGACUGCAGAGAAGGGACAUGAGGAUCACCCAUGUCCUCG [EX4 C.21] (Eterna round: R97, puzzle: Exclusion 4)
- apparent KD of MS2 coat protein (input ligand: FMN 200 uM): 27 nM
- apparent KD of MS2 coat protein (input ligand: none): 18 nM

Sequence: CCCAGGGCAGGAUAUAGAGGGCUAAACAUGAGGAUCACCCAUGUGACCUCGGAACAGUUGCUAGAAGGGCCAGAUU [Maedonxe] (puzzle: Exclusion 5)
- apparent KD of MS2 coat protein [2]: 29.8 nM
- apparent KD of MS2 coat protein [1]: 17.7 nM
- apparent KD of MS2 coat protein [3]: 22 nM

Sequence: CCCAGUUAGGAAGGAUAUUGUACAUGAGGAUCACCCAUGUAAUAAAUGAGGAUCUCGGAUGUCUACAAGAAGGUCCGGAUAGGC [Ostracism 11 - Jieux - Exclusion NG 2] (Eterna round: R96, puzzle: Exclusion NG 2)
- apparent KD of MS2 coat protein (input ligand: FMN 200 uM): 65.9 nM
- apparent KD of MS2 coat protein [4]: 34.3 nM
- apparent KD of MS2 coat protein (input ligand: none): 44.5 nM

Sequence: CCCAGUUAUGAAGGAUAUUGUACAUGAGGAUCACCCAUGUAAUAAAUGAGGAUUUCGGGUGUCUACAAGAAGGUCAGGAUAGGC [Ostracism 14 - Jieux - Exclusion NG 2] (Eterna round: R96, puzzle: Exclusion NG 2)
- apparent KD of MS2 coat protein (input ligand: FMN 200 uM): 82.8 nM
- apparent KD of MS2 coat protein [4]: 43.6 nM
- apparent KD of MS2 coat protein (input ligand: none): 60.6 nM

Sequence: CCCGUGUGAGGAUAUACUCUAAGCAAUGUCAGUUGCUACAGGUAGAAGGCACAUGAGGAUCACCCAUGUCCCGG [EX4 C.24] (Eterna round: R97, puzzle: Exclusion 4)
- apparent KD of MS2 coat protein (input ligand: FMN 200 uM): 130 nM
- apparent KD of MS2 coat protein (input ligand: none): 241 nM

Sequence: CCCUCACAUGAGGAUCACCCAUGUCAGGAUAUAGUGCGAUUGUCGAUAUGAAAUUGCAUUAGAAGGGAUUAGGC [Eternabot (L1) Solution 67] (Eterna round: R97, puzzle: Exclusion 1)
- apparent KD of MS2 coat protein (input ligand: FMN 200 uM): 24.8 nM
- apparent KD of MS2 coat protein (input ligand: none): 17.5 nM

Sequence: CCCUCACAUGAGGAUCACCCAUGUCAGGAUAUUCAGGUCACGCAAAAGCGGUUCCAAAGGAGAAGGGACAUCAA [Cequusso] (puzzle: Exclusion 1)
- apparent KD of MS2 coat protein [2]: 43.8 nM
- apparent KD of MS2 coat protein [1]: 24.2 nM
- apparent KD of MS2 coat protein [3]: 30.9 nM

Sequence: CCCUCACUUGAGGAUCACCCAAGUCAGGAUAUCUCACCCGUCCUGCAAGACGGGUCACAGAGAAGGGACUAAAA [Araatra] (Eterna round: R97, puzzle: Exclusion 1)
- apparent KD of MS2 coat protein (input ligand: FMN 200 uM): 69 nM
- apparent KD of MS2 coat protein (input ligand: none): 21.9 nM

Sequence: CCCUCGCGAGGAUAUGCAUCCUCCCUCAUUUCUUUCACUACACAUGAGGAUCACCCAUGUAGAAGGCGCUCUCC [Nina] (puzzle: Exclusion 2)
- apparent KD of MS2 coat protein [1]: 41.2 nM

Sequence: CCGAAGGCAGGAUAUACAGGACAGACCCAUCAGAGCAGACUACAUGAGGAUCACCCAUGUAGAAGGGCCUUCAA [Eternabot (Original) Solution 26] (Eterna round: R97, puzzle: Exclusion 2)
- apparent KD of MS2 coat protein (input ligand: FMN 200 uM): 154 nM
- apparent KD of MS2 coat protein (input ligand: none): 18.7 nM

Sequence: CCGAAUAUGCAGGAUAUCGUAUCGGAAACGAUACGAGAAGGGCAAACAUGAGGAUCACCCAUGUUCCUUAACGG [Fiskers Ex 6 - 14] (puzzle: Exclusion 6)
- apparent KD of MS2 coat protein [1]: 15.8 nM

Sequence: CCGAAUAUGUAGGAUAUCGUAUCGGAAACGAUACGAGAAGGACAAACAUGAGGAUCACCCAUGUUCCUUAACGG [Fiskers Ex 6 - 12] (puzzle: Exclusion 6)
- apparent KD of MS2 coat protein [2]: 18.5 nM
- apparent KD of MS2 coat protein [1]: 15.6 nM
- apparent KD of MS2 coat protein [3]: 15 nM

Sequence: CCGCAAAUUGAGGAUAUCGUAUCGGAUACGAUACGAGAAGGCGAAACAUGAGGAUCACCCAUGUGUCCUAGCGG [Fiskers Ex 6 - 33] (puzzle: Exclusion 6)
- apparent KD of MS2 coat protein [2]: 18.2 nM
- apparent KD of MS2 coat protein [1]: 12 nM
- apparent KD of MS2 coat protein [3]: 14.4 nM

Sequence: CCGCAGCAAGGAUAUACUUGCGGUGGUGAACGAGGGCUUAUACUUGAGGAUCACCCAAGUAGAAGGUGCAAAAC [Mamaed] (Eterna round: R97, puzzle: Exclusion 2)
- apparent KD of MS2 coat protein (input ligand: FMN 200 uM): 33.9 nM
- apparent KD of MS2 coat protein (input ligand: none): 22.4 nM
